These are literature values, as cited in paper PMC3849016.

This series addresses VEGFR2 (vascular endothelial growth factor receptor 2) (UniProt P35968). The conditions noted are these: printed Z = 5-N-(benzylcarboxyamide)-2'-deoxyuridine (BzdU), written here as U at every Z; all other residues are DNA; 5' H2N-C6; not stated for the supplier ….
UniProt P35968, sequence (P35968 whole entry): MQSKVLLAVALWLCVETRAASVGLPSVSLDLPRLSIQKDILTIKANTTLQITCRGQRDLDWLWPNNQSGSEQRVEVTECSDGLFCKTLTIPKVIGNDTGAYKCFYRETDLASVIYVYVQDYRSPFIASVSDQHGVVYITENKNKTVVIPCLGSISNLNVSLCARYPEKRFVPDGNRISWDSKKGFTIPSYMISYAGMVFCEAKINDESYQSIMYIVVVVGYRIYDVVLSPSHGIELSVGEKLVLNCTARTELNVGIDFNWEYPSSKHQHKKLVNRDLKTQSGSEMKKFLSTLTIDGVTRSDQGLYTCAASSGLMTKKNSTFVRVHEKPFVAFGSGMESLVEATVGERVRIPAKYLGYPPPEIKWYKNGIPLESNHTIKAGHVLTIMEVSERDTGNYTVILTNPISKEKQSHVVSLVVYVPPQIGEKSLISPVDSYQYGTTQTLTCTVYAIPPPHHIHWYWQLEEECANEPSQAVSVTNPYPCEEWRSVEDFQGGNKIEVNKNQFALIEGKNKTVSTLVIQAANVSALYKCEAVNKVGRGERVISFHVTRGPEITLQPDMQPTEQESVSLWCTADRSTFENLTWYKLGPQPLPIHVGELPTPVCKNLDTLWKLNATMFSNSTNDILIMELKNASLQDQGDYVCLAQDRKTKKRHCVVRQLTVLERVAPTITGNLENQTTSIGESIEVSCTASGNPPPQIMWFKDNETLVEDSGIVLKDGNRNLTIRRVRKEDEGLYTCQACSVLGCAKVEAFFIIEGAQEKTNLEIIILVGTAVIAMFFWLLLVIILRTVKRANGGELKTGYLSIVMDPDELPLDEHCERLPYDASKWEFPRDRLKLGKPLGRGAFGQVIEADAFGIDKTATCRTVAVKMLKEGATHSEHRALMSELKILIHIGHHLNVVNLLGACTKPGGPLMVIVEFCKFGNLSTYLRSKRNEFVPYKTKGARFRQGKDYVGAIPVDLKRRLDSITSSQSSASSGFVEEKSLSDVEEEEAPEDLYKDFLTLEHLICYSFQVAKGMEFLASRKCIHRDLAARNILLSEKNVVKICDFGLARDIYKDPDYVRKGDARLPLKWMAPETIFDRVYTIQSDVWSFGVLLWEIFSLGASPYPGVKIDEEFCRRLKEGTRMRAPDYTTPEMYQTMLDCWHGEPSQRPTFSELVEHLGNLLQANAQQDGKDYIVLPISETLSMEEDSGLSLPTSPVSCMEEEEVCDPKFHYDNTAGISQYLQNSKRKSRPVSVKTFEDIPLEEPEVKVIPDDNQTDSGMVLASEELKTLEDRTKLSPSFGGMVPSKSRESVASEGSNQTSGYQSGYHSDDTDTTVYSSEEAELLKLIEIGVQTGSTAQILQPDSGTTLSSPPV

Take “ACGAGCUACGACGUCUGGUGUAAUUUAUAAAGACACUGUGUAUAUCAACAA [anti-VEGFR2 DNA aptamer (Aptamer Science Cat. 186)]”: the Kd (commonly a measure of binding affinity in units of concentration) is 0.12 nM.
